Experimental data: US20240360238A1 (MAGENTA THERAPEUTICS, published 2024)

Columns and labels:
[1] = molecular target: T1, CD117 on Kasumi-1 cells and primary human CD34+ bone marrow cells (human, UniProt P10721 26-976); assay: cell-based or functional assay
[2] = molecular target: T1, CD117 on Kasumi-1 cells and primary …; assay: cell-based or functional assay; remark: listed apart in the source
[3] = molecular target: T1, CD117 on Kasumi-1 cells and primary …; assay: cell-based or functional assay; remark: listed apart in the source
[4] = molecular target: T2, purified human CD117 ectodomain (R&D Systems #332-SR) (human, UniProt P10721 26-524); assay: BLI; kdis compared to HC-1/LC-1 (Ab1)
T2 construct: extracellular domain; Bought protein; also called c-kit; purified recombinant human CD117 ectodomain

[5] = molecular target: T2, purified human CD117 ectodomain (R&D …); assay: BLI (Octet Red96), IgG on anti-human Fc sensor, 33.3 and 11 nM ectodomain
[6] = molecular target: T2, purified human CD117 ectodomain (R&D …); assay: BLI, IgG on anti-human Fc sensor, 33 and 11 nM ectodomain;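 note: Kd, kon and koff are apparent values, with Kd reported as the apparent monovalent affinity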

T2 sequence (P10721 26-524): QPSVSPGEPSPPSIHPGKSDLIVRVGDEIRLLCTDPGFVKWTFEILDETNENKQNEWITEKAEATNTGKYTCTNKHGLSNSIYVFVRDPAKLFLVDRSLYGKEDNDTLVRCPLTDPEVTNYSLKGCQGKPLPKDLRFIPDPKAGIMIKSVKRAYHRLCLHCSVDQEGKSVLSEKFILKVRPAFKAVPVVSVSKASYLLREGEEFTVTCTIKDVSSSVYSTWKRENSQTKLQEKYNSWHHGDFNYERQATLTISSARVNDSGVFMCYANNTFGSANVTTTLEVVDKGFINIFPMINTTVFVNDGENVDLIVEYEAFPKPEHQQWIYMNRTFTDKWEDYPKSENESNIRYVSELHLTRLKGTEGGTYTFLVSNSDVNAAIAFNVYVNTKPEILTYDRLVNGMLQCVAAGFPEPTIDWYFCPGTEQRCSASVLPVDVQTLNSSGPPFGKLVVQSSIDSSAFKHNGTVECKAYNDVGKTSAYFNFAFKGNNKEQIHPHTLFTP
T1 sequence (P10721 26-976): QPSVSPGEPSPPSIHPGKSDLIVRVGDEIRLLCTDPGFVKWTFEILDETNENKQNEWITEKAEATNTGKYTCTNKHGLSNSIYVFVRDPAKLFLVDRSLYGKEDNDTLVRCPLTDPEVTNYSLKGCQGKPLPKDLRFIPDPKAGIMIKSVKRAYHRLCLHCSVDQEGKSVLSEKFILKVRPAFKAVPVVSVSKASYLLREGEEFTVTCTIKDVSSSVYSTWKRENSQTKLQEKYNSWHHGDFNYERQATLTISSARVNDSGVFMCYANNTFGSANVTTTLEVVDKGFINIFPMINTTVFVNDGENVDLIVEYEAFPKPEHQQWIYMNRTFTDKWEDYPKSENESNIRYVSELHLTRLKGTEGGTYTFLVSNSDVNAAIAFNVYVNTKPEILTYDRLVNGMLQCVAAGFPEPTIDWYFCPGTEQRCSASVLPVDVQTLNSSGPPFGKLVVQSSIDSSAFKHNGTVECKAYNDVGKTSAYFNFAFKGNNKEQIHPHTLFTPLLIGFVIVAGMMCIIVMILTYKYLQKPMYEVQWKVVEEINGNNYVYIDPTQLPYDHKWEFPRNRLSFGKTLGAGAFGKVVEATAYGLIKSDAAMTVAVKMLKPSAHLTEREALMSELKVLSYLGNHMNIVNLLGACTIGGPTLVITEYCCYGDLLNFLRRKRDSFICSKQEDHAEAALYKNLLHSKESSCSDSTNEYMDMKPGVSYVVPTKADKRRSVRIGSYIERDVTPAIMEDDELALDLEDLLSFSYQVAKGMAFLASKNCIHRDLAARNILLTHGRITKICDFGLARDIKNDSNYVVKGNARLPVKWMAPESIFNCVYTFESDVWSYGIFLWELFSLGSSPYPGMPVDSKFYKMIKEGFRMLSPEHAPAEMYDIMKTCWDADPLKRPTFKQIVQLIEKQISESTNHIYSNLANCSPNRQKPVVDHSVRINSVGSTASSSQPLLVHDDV

Row | Binder | IC50 (M), Kasumi-1 cell killing (Celltiter Glo, 3 days) [1] | IC50, in vitro killing of Kasumi-1 cells (Celltiter Glo) [2] | IC50, in vitro killing of primary human CD34+ bone marrow cells [2] | % efficacy, killing of primary human CD34+CD90+ cells [3] | IC50, killing of primary human CD34+CD90+ cells (5 days, flow cytometry counts) [3] | Fold improvement (off-rate) [4] | Kd [5] | koff [5] | kon [5] | Kd [6] | koff [6] | kon [6]
1 | CD117-ADC (anti-CD117 antibody CK6 conjugated to amatoxin) (antibody, V domains shown, antibody conjugated to an amatoxin; site and linker not stated for this assay) VH: QVQLVQSGAAVKKPGESLKISCKGSGYRFTSYWIGWVRQMPGKGLEWMGIIYPGDSDTRYSPSFQGQVTISAGKSISTAYLQWSSLKASDTAMYYCARHGRGYNGYEGAFDIWGQGTMVTVSS VL: AIQLTQSPSSLSASVGDRVTITCRASQGISSALAWYQQKPGKAPKLLIYDASSLESGVPSRFSGSGSGTDFTLTISSLQPEDFATYYCQQFNSYPLTFGGGTKVEIK | 1.48e-11 M | 1600 nM | 21000 nM | 70.8% | 0.00977 nM | – | – | – | – | – | – | –
2 | HC-249/LC-249 ADC (Ab249 conjugated to an amatoxin) (antibody, V domains shown, antibody conjugated to an amatoxin; site not stated) VH: EVQLVQSGAEVKKPGESLKISCKGSGYRFTTSWIGWVRQMPGKGLEWMGIIYPGDSDTRYSPSFQGQVTISADKSISTAYLQWSSLKASDTAMYYCARHGLGYNGYEGAFDIWGQGTLVTVSS VL: DIQMTQSPSSLSASVGDRVTITCRASQGIGSALAWYQQKPGKAPKLLIYDASNLETGVPSRFSGSGSGTDFTLTISSLQPEDFATYYCQQLNGYPLTFGQGTRLEIK | 2.5e-11 M | – | – | 52% | 0.00667 nM | – | – | – | – | – | – | –
3 | HC-85/LC-85 ADC (Ab85 conjugated to an amatoxin) (antibody, V domains shown, antibody conjugated to an amatoxin; site not stated) VH: EVQLVQSGAEVKKPGESLKISCKGSGYSFTNYWIGWVRQMPGKGLEWMAIINPRDSDTRYRPSFQGQVTISADKSISTAYLQWSSLKASDTAMYYCARHGRGYEGYEGAFDIWGQGTLVTVSS VL: DIQMTQSPSSLSASVGDRVTITCRSSQGIRSDLGWYQQKPGKAPKLLIYDASNLETGVPSRFSGSGSGTDFTLTISSLQPEDFATYYCQQANGFPLTFGGGTKVEIK | 1.76e-11 M | – | – | 71.2% | 0.00574 nM | – | – | – | – | – | – | –
4 | HC-85/LC-85 (Ab85) (antibody, V domains shown, Purified IgG, hIgG1/hKappa; also called Antibody 85) VH: EVQLVQSGAEVKKPGESLKISCKGSGYSFTNYWIGWVRQMPGKGLEWMAIINPRDSDTRYRPSFQGQVTISADKSISTAYLQWSSLKASDTAMYYCARHGRGYEGYEGAFDIWGQGTLVTVSS VL: DIQMTQSPSSLSASVGDRVTITCRSSQGIRSDLGWYQQKPGKAPKLLIYDASNLETGVPSRFSGSGSGTDFTLTISSLQPEDFATYYCQQANGFPLTFGGGTKVEIK | – | – | – | – | – | 5.2 fold | 0.835 nM | 0.000434 s⁻¹ | 520000 M⁻¹ s⁻¹ | 0.835 nM | 0.000434 s⁻¹ | 520000 M⁻¹ s⁻¹
